The source of these data is article PMC12255069 (Journal of Biological Engineering, 2025).

Holding throughout (settings): both partners purified
The target in experiment [1] is T1, ICOS-L-H (N57H)-His (UniProt O75144 19-256, N57H).
T1 construct: plasmid pMAZ-ICOS-L-H(N57H)-His; source: Expi293F, transient transfection, purified (Ni-NTA agarose, SEC)
T1 sequence (looked up): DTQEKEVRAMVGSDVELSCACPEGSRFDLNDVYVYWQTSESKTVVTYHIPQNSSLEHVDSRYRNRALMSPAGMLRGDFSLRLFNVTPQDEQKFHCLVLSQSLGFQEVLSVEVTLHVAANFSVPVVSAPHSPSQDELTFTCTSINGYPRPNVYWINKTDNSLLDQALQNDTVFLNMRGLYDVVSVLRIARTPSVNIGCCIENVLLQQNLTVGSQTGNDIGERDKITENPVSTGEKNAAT
In words: BLI; Octet R8; hICOS-Fc (5 µg/mL) immobilised on a Protein A biosensor; serial dilutions of ICOS-L variants, 10 min association, 10 min dissociation, 1× PBS pH 7.4. For orientation: In BLI a coated tip is dipped into the sample, and binding shifts an interference pattern.

For experiment [2], the target named is T2, ICOS-L-P (Q51P)-His (UniProt O75144 19-256, Q51P).
T2 construct: plasmid pMAZ-ICOS-L-P (Q51P)-His; source: Expi293F, transient transfection, purified (Ni-NTA agarose, SEC)
T2 sequence (looked up): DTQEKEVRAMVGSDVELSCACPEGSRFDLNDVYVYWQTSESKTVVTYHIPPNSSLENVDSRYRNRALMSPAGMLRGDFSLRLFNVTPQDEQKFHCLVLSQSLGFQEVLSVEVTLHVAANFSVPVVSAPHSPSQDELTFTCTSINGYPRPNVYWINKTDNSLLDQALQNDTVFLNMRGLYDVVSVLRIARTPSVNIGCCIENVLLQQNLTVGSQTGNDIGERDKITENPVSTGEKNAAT
The experiment is described as above.

Experiment [3] has as its target T3, ICOS-L wild-type-His (UniProt O75144 19-256).
T3 construct: ICOS ligand (ICOS-L, B7-H2, CD275), ectodomain D1-T238; plasmid pMAZ-ICOS-L-wild-type-His; also called wild-type ICOS-L; B7-H2; source: Expi293F, transient transfection, purified (Ni-NTA agarose, SEC)
T3 sequence (looked up): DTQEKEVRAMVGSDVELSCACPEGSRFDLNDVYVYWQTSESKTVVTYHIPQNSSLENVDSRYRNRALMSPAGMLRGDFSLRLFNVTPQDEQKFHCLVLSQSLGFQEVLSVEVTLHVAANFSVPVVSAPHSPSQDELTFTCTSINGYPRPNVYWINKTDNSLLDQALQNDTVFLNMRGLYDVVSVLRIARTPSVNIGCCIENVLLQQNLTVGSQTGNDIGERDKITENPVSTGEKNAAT
The description is as above.

In experiment [4] the target is T4, ICOS-L Y8 (Q51P, N57H)-His (UniProt O75144 19-256, Q51P | N57H).
T4 construct: plasmid pMAZ-ICOS-L-Y8(Q51P, N57H)-His; also called Y8 variant; source: Expi293F, transient transfection, purified (Ni-NTA agarose, SEC)
T4 sequence (looked up): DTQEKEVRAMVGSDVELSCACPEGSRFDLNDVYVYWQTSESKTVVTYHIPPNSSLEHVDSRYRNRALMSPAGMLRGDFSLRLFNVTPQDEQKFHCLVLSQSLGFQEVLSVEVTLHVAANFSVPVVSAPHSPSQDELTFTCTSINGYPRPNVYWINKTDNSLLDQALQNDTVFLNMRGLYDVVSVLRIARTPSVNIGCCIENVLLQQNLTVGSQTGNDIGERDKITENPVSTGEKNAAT
Described as above.

In experiment [5] the target is T4, ICOS-L Y8 (Q51P, N57H)-His. In words: ELISA; ICOS-Fc (hICOS-Fc or mICOS-Fc) coated at 4 µg/mL in 0.05 M Na2CO3 pH 9.6; serially diluted His-tagged ICOS-L variants, detected with mouse anti-His-HRP. On the technique in general: ELISA stands for enzyme-linked immunosorbent assay.

The term Kd denotes a measure of binding affinity in units of concentration. Broadly, the koff is a measure of how fast the partners let go of each other. Read a low koff as a long-lived complex. For orientation: kon means the rate constant with which the complex forms. Read a low kon as slower complex formation.

B1: hICOS-Fc (Fc fusion, human, UniProt Q9Y6W8 21-140, looked up)
chain: EINGSANYEMFIFHNGGVQILCKYPDIVQQFKMQLLKGGQILCDLTKTKGSGNTVSIKSLKFCHSQLSNNSVSFFLYNLDHSHANYYFCNLSIFDPPPFKVTLTGGYLHIYESQLCCQLK
notes: human Inducible T-cell Co-Stimulator (ICOS), extracellular domain E21-K140; plasmid pMAZ-hICOS-Fc; also called hICOS-hFc; human ICOS ectodomain fused to human Fc; source: Expi293F, transient transfection, purified (Protein A resin)
In the case of B1, the Kd in experiment [1] is 0.0233 µM; in experiment [2] it was 0.00475 µM; in experiment [3], 0.113 µM; in experiment [4], 0.00119 µM. Besides, the koff in experiment [1] was determined as 0.00567 s⁻¹; in experiment [2], 0.000961 s⁻¹; in experiment [3] it was 0.0337 s⁻¹; in experiment [4], 0.000179 s⁻¹. For the same molecule, the kon was found to be 244000 M⁻¹ s⁻¹ in experiment [1], 202000 M⁻¹ s⁻¹ in experiment [2], 298000 M⁻¹ s⁻¹ in experiment [3] and 150000 M⁻¹ s⁻¹ in experiment [4].

B2: mouse ICOS (E21-K141)-hFc (Fc fusion, UniProt Q9WVS0 21-141, looked up)
chain: EINGSADHRMFSFHNGGVQISCKYPETVQQLKMRLFREREVLCELTKTKGSGNAVSIKNPMLCLYHLSNNSVSFFLNNPDSSQGSYYFCSLSIFDPPPFQERNLSGGYLHIYESQLCCQLK
notes: mouse ICOS, E21-K141; Plasmid pMAZ-mICOS-Fc; also called mICOS-Fc; source: Expi293F, transient transfection, purified (Protein A resin)
B2: the binding result in experiment [5] is reported as “binds”.
